Columns and labels:
[1] = target: T1, BsoBI D246E D246E (UniProt P70985); assay: cleavage_in_vitro; conditions: lambda or pUC19; purified D246E also lacked measurable cleavage
T1 sequence: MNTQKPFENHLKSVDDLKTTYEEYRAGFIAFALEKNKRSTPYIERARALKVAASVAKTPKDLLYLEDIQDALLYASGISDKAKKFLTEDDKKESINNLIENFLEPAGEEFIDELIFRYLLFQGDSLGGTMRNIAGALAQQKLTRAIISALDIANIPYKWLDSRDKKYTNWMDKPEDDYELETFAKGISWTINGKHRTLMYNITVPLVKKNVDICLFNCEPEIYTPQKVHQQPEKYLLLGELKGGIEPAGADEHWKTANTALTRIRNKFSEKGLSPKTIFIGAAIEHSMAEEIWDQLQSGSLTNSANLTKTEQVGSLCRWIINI

[2] = target: T2, BsoBI D246N D246N (UniProt P70985); assay: cleavage_in_vitro; conditions: cell extract
T2 sequence: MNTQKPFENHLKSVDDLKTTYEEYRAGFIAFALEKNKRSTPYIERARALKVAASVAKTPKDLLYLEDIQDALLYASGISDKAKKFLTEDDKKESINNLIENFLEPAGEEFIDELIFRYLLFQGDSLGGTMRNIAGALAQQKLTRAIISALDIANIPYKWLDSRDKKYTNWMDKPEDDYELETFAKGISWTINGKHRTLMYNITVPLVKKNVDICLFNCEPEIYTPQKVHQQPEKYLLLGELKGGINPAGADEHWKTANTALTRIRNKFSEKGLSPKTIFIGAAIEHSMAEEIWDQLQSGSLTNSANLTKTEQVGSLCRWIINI

[3] = target: T3, BsoBI D246Q D246Q (UniProt P70985); assay: cleavage_in_vitro; conditions: cell extract
T3 sequence: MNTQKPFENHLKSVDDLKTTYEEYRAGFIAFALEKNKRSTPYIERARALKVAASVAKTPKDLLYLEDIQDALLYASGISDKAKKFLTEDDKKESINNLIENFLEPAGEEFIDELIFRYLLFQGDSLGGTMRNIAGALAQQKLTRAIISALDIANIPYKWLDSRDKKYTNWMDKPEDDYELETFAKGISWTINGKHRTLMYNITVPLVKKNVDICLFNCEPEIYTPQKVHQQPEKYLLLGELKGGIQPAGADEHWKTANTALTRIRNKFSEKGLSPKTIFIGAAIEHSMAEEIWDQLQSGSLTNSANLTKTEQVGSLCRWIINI

[4] = target: BsoBI pseudorevertant 6c E46V/D61E/S94T/D246A (UniProt P70985); assay: cleavage_in_vitro; conditions: pUC19, 65 C
[5] = target: T4, PvuII K93R (UniProt P23657 P23657:1-157, K93R); assay: cleavage_in_vitro; NEB buffer 2, 37 C, 1.5 h; conditions: tags: His-tag; chain copies: 2 inferred
T4 sequence: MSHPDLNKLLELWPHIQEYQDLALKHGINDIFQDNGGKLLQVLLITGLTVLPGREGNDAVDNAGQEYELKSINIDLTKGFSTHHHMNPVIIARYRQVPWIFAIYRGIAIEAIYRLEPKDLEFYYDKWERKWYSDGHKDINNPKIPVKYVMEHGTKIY
From the text: (§1) In order to test the cleavage specificity of the mutant endonucleases, two substrates were designed such that a limited number of sites related to the PvuII cognate sequence were present. A 1042 bp DNA substrate, corresponding to bases 317-1359 of the pUC19 sequence (GenBank #L09137), was amplified from pUC19. This substrate contains a unique PvuII site 631 bp from one end. A second, 1270 bp DNA substrate was amplified from the region corresponding to bases 6010-7280 of pTYB1 (New England Biolabs, Beverly, Mass.). This substrate contains a unique MfeI site 1022 bp from one end, and a unique PmlI site 810 bp from the same end. These substrates were used to determine the substrate specificity of PvuII (K93R) and its variants K93R/R105H, K93R/V50A and E18K/K93R/R105H. PvuII restriction digestion was assayed in NEB buffer 2 at 37° C. for 1.5 hour (New England Biolabs, Inc., Beverly, Mass.). […] The amount of protein required to cleave the MfeI/PmlI substrate at the MfeI site is >10 μg for the K93R mutant, 0.1 μg for K93R/105H, for 0.1 μg K93R/V50A, and 0.03 μg for K93R/R105H/E18K. The amount of protein required to cleave the MfeI/PmlI substrate at the PmlI site is >10 μg for the K93R mutant, 3 μg for K93R/105H, 3 μg for K93R/V50A, and 3 μg for K93R/R105H/E18K. Cleavage of the MfeI or PmlI sites by the wild-type PvuII endonuclease was not detectible (data not shown). It is clear that, compared to K93R, these K93R variants show an increase in specific cleavage activity at CAATTG and […], while maintaining similar levels of cleavage activity at CAGCTG.

[6] = target: T5, PvuII K93R/R105H (UniProt P23657 P23657:1-157, K93R/R105H); assay: cleavage_in_vitro; NEB buffer 2, 37 C, 1.5 h; conditions: tags: His-tag; chain copies: 2 inferred
T5 sequence: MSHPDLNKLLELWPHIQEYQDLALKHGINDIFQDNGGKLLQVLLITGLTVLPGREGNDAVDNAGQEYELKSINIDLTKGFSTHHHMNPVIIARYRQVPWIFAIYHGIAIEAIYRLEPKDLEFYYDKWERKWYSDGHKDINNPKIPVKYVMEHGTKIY
From the text: as §1

[7] = target: T6, PvuII E18K/K93R/R105H (UniProt P23657 P23657:1-157, E18K/K93R/R105H); assay: cleavage_in_vitro; NEB buffer 2, 37 C, 1.5 h; conditions: tags: His-tag; chain copies: 2 inferred
T6 sequence: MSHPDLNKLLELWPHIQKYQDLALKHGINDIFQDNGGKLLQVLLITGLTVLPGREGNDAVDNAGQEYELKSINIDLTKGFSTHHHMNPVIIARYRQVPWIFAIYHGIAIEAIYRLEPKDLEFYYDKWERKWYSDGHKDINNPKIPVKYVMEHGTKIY
From the text: as §1

[8] = target: T7, PvuII K93R/V50A (UniProt P23657 P23657:1-157, K93R/V50A); assay: cleavage_in_vitro; NEB buffer 2, 37 C, 1.5 h; conditions: tags: His-tag; chain copies: 2 inferred
T7 sequence: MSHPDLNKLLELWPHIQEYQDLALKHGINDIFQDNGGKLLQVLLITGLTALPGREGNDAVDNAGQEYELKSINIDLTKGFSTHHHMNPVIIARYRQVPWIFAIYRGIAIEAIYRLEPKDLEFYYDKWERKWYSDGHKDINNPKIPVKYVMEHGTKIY
From the text: as §1

[9] = target: T8, BsoBI pseudorevertant 8d (UniProt P70985 P70985:1-323, N36K/D246A); assay: cleavage_in_vitro; pUC19, 65 C; conditions: tags: partially purified; chain copies: 2 inferred
T8 sequence: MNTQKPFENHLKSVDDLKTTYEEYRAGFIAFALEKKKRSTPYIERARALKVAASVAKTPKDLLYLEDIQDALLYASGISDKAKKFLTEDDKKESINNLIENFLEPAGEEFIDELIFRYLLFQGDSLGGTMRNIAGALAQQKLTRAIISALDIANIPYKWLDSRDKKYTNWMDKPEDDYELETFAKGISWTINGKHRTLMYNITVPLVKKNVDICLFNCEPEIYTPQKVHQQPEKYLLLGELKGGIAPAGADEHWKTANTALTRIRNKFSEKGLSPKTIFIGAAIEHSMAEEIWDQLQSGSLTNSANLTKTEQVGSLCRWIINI

[10] = target: T9, BsoBI pseudorevertant 29e (UniProt P70985 P70985:1-323, D246A/C317W); assay: cleavage_in_vitro; pUC19, 65 C; conditions: chain copies: 2 inferred
T9 sequence: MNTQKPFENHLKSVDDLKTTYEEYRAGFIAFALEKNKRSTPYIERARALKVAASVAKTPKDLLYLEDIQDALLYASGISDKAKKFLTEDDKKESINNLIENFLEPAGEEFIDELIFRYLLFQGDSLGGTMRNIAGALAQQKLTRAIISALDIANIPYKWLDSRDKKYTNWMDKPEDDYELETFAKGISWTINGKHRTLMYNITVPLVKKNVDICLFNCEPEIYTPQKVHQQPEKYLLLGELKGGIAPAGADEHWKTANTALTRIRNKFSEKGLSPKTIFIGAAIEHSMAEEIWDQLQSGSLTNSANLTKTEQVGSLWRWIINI

[11] = target: T10, BsoBI restriction endonuclease (UniProt P70985 P70985:1-323); assay: cleavage_in_vitro; pUC19, NEB buffer 2, 65 C; conditions: tags: untagged, expressed from pRRS-bsoBIR in E. coli ER2683; chain copies: 2 inferred
T10 sequence: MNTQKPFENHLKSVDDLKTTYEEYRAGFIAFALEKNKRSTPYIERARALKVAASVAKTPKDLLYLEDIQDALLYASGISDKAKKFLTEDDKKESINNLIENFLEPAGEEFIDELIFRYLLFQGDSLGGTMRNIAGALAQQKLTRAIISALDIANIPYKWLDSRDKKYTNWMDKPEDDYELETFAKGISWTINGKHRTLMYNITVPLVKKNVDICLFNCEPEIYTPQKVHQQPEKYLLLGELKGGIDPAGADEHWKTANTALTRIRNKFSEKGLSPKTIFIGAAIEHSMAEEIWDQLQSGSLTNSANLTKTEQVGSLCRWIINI

[12] = target: T11, BsoBI pseudorevertant 9c (same as 11c) (UniProt P70985 P70985:1-323, R38S/L62I/D112Y/N169T/L238F/D246A/A248S); assay: cleavage_in_vitro; pUC19, 65 C; protein temperature sensitive; conditions: chain copies: 2 inferred
T11 sequence: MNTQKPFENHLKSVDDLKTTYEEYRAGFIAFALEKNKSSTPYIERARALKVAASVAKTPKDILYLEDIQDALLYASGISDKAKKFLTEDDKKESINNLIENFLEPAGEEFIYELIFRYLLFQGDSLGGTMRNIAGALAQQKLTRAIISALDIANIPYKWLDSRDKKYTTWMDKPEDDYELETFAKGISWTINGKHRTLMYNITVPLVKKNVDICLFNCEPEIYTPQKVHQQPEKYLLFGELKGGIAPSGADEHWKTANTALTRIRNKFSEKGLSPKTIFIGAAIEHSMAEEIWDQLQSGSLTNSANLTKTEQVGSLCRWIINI

Q: What does the source list for lambda DNA (8 BsoBI sites)?
A: activity [1]: < 0.001 % of wt; activity [2]: < 0.001 % of wt; activity [3]: < 0.001 % of wt

Q: With “GTACCCGGGGAT (double strand) [pUC19/pZZ1 CCCGGG site]” as the molecule, how does the activity [4] read?
A: 4 % of wt

B1: pUC19 1042 bp PCR fragment, unique PvuII site (dsDNA)
DNA 1: CAGCTG
DNA 2: CAGCTG
Q: Which results are given for B1?
A: activity [5]: 0.03 ug protein required to cleave; activity [6]: 0.01 ug protein required to cleave; activity [7]: 0.03 ug protein required to cleave; activity [8]: 0.01 ug protein required to cleave

B2: pTYB1 1270 bp PCR fragment, MfeI site (dsDNA)
DNA 1: CAATTG
DNA 2: CAATTG
Q: Which activity [6] does the source give for B2 here?
A: 0.1 ug protein required to cleave

Q: What about the activity [7] of the same molecule?
A: 0.03 ug protein required to cleave

Q: What about the activity [8] of the same molecule?
A: 0.1 ug protein required to cleave

B3: pUC19/pZZ1 CCCGGG site (dsDNA)
DNA 1: GTACCCGGGGAT
DNA 2: ATCCCCGGGTAC
Q: How did the activity [9] turn out when B3 was run?
A: 5 % of wt

Q: What about the activity [10] of the same molecule?
A: 4 % of wt

Q: And the activity [11]?
A: 100 % of wt

Q: What about the activity [12] of the same molecule?
A: 10 % of wt
